The record followed here is PMC7110113, “Termination of non‐coding transcription in yeast relies on both an RNA Pol II CTD interaction domain and a CTD‐mimicking region in Sen1” (The EMBO Journal, 2020).

Numbering of substitutions follows the chain as printed. Ends that are not written are not given here. FAM = 5,6-carboxyfluorescein

Test in all cases: fluorescence polarisation; fluorescence anisotropy, equilibrium binding of Nrd1 CID variants to FAM-labelled NIM peptides; 10°C, 50 mM Na2HPO4, 100 mM NaCl, pH 8; 1:1 model with non-specific binding (DynaFit)
What all share (details): both partners purified

In one assay the target is T1, Nrd1 CID R133D (S. cerevisiae, UniProt P53617 1-153, R133D).
T1 construct: the construct for anisotropy is made as described previously (Kubicek et al, 2012); also called CID(R133D)-His6; source: recombinant, produced and purified as described previously (Kubicek et al, 2012); plasmid made with QuikChange, T7 promoter
T1 sequence (looked up): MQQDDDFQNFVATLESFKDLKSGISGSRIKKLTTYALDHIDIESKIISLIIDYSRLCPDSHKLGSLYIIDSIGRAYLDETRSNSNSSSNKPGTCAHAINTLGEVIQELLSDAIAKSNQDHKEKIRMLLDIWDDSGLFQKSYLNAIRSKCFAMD

In the next assay the target is T2, Nrd1 CID K21D (S. cerevisiae, UniProt P53617 1-153, K21D).
T2 construct: the construct for anisotropy is made as described previously (Kubicek et al, 2012); also called CID(K21D)-His6; source: recombinant, produced and purified as described previously (Kubicek et al, 2012); plasmid with T7 promoter
T2 sequence (looked up): T1 sequence (looked up) with K21D, D133R

The target in another assay is T3, Nrd1 CID R133A (S. cerevisiae, UniProt P53617 1-153, R133A).
T3 construct: the construct for anisotropy is made as described previously (Kubicek et al, 2012); also called CID(R133A)-His6; source: recombinant, produced and purified as described previously (Kubicek et al, 2012); plasmid with T7 promoter
T3 sequence (looked up): T1 sequence (looked up) with D133A

B1: Sen1 NIM peptide (Sen1 aa 2,052-2,063) (peptide, UniProt Q00416 2052-2063, looked up)
peptide: {FAM}-DDDEDDYTPSIS
notes: Sen1, S. cerevisiae, fragment harbouring aa 2,052-2,063; source: synthetic peptide
Take B1: the Kd with Nrd1 CID R133D amounted to 2000 ± 100 nM; with Nrd1 CID K21D, 8000 ± 800 nM; with Nrd1 CID R133A, 1800 ± 80 nM.
